The values that follow come from paper PMC7596997.

This assay has as its target S. cerevisiae AAC2, P18239. In words: binding of [35S]-labeled AAC2 to isolated mitochondria. The conditions noted are these: chain shown with the change, AAC2 lysate preincubated with apyrase, n = 3, read off a plot.

S. cerevisiae AAC2, P18239, sequence (P18239 whole entry, the tested form may be a part): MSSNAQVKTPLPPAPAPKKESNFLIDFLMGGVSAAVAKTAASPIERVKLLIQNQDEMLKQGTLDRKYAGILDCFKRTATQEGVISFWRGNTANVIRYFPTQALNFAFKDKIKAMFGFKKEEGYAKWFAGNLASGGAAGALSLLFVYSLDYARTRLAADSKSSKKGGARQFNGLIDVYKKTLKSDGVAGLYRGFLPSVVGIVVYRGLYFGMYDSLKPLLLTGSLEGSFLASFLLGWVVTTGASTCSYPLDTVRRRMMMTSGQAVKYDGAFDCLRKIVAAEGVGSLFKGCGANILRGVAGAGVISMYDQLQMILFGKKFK

B1: Tom70 in the outer membrane of isolated yeast mitochondria (wild type), P07213 C141A (protein)
chain: MKSFITRNKTAILATVAATGTAIGAYYYYNQLQQQQQRGKKNTINKDEKKDTKDSQKETEGAKKSTAPSNPPIYPVSSNGEPDFSNKANFTAEEKDKYALALKDKGNQFFRNKKYDDAIKYYNWALELKEDPVFYSNLSAAYVSVGDLKKVVEMSTKALELKPDYSKVLLRRASANEGLGKFADAMFDLSVLSLNGDFNDASIEPMLERNLNKQAMSKLKEKFGDIDTATATPTELSTQPAKERKDKQENLPSVTSMASFFGIFKPELTFANYDESNEADKELMNGLSNLYKRSPESYDKADESFTKAARLFEEQLDKNNEDEKLKEKLAISLEHTGIFKFLKNDPLGAHEDIKKAIELFPRVNSYIYMALIMADRNDSTEYYNYFDKALKLDSNNSSVYYHRGQMNFILQNYDQAGKDFDKAKELDPENIFPYIQLACLAYRENKFDDCETLFSEAKRKFPEAPEVPNFFAEILTDKNDFDKALKQYDLAIELENKLDGIYVGIAPLVGKATLLTRNPTVENFIEATNLLEKASKLDPRSEQAKIGLAQMKLQQEDIDEAITLFEESADLARTMEEKLQAITFAEAAKVQQRIRSDPVLAKKIQETLAKLREQGLM
With B1, the other: bound protein, % of control (same mitochondria without NEM, 12 min) is 95 % of control (mitochondria pretreated with 2 mM NEM, control = untreated Tom70C141A mitochondria at 12 min) and 100 % of control (no NEM, this point is the normalisation control (100%), not a comparison with wild type).
